Data as given in PMC9883682, “Fatty acids negatively regulate platelet function through formation of noncanonical 15‐lipoxygenase‐derived eicosanoids” (Pharmacology Research & Perspectives, 2023).

How the values were obtained:
Format in all cases: biochemical
[1] = target: T1, 12‐LOX (Homo sapiens, UniProt P18054); experiment: inhibition of purified recombinant 12-LOX with […] AA as substrate
T1 construct: gene ALOX12
T1 sequence (P18054 1-663): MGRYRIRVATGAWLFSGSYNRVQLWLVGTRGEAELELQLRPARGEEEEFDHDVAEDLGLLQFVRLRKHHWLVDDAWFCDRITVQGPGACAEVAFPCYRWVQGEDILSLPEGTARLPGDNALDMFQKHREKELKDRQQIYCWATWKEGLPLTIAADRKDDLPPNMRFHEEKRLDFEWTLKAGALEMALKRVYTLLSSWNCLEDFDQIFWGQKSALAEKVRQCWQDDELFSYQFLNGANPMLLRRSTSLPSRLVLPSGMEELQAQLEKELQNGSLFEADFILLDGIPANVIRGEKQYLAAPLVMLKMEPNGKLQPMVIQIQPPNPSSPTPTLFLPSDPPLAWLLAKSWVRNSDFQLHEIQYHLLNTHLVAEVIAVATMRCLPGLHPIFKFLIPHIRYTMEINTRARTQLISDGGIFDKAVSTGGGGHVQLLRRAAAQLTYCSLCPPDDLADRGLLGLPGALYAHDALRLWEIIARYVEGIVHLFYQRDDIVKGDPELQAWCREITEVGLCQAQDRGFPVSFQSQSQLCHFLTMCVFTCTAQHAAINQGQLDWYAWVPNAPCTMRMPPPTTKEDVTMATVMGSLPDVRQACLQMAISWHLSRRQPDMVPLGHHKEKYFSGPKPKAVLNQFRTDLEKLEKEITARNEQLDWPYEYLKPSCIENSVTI

[2] = substrate: CC/C=C\C[C@@H](/C=C/C=C\C/C=C\C/C=C\CCCC(=O)O)OO; experiment: steady-state UV kinetics with purified human 12-LOX (kM); LC-MS product profile; settings: also described as a […]‐LOX allosteric regulator that affects secondary product formation
[3] = substrate: CCCCC[C@@H](/C=C/C=C\C/C=C\C/C=C\CCCC(=O)O)OO; experiment: as above
[4] = substrate: CCCCC[C@@H](/C=C/C=C\C/C=C\CCCCCCC(=O)O)OO; experiment: as above
[5] = substrate: CC/C=C\C/C=C\C/C=C\C/C=C\C/C=C\CCCC(=O)O; experiment: steady-state UV kinetics with purified human 12-LOX (kM)
[6] = substrate: CCCCC/C=C\C/C=C\C/C=C\C/C=C\CCCC(=O)O; experiment: as above
[7] = substrate: CCCCC/C=C\C/C=C\C/C=C\CCCCCCC(=O)O; experiment: as above

CCCCC[C@H](O)/C=C/C=C\C/C=C\C/C=C\CCCC(=O)O [15‐HETE]
IC50 [1]: 46 ± 19 µM

CC/C=C\C[C@H](O)/C=C/C=C\C/C=C\C/C=C\CCCC(=O)O [15‐HEPE]
IC50 [1]: 142 ± 11 µM

CCCCC[C@H](O)/C=C/C=C\C/C=C\CCCCCCC(=O)O [15‐HETrE]
IC50 [1]: 105 ± 55 µM

B1: 12‐LOX (Homo sapiens) (protein)
chain: T1 sequence (P18054 1-663)
Km [2]: 9.2 ± 1 µM | kcat [2]: 0.93 ± 0.06 s⁻¹ | kcat/Km [2]: 100000 ± 8000 M⁻¹ s⁻¹ | Km [3]: 5.8 ± 0.4 µM | kcat [3]: 1.5 ± 0.05 s⁻¹ | kcat/Km [3]: 260000 ± 1000 M⁻¹ s⁻¹ | Km [4]: 11 ± 1 µM | kcat [4]: 0.96 ± 0.05 s⁻¹ | kcat/Km [4]: 86000 ± 4000 M⁻¹ s⁻¹ | Km [5]: 1 ± 0.2 µM | kcat [5]: 9 ± 0.5 s⁻¹ | kcat/Km [5]: 8.7e+06 ± 1.2e+06 M⁻¹ s⁻¹ | Km [6]: 0.49 ± 0.07 µM | kcat [6]: 11 ± 0.2 s⁻¹ | kcat/Km [6]: 2.2e+07 ± 3e+06 M⁻¹ s⁻¹ | Km [7]: 2.5 ± 0.2 µM | kcat [7]: 12 ± 0.3 s⁻¹ | kcat/Km [7]: 4.9e+06 ± 300000 M⁻¹ s⁻¹
